B1: Tumor protein p73, residues 487 to 549; numbered along this chain, O15350 (parent)
chain: YHADPSLVSFLTGLGCPNCIEYFTSQGLQSIYHLQNLTIEDLGALKIPEQYRMTIWRGLQDLK

± gives the uncertainty stated by the source.

The series covers variants of B1. Nature of the series: abundance fitness (aPCA) (normalised: wild type 0, dead -1); higher = more abundant; growth selection in yeast, the domain comes from the species named. Particulars: Homo sapiens.
Take YHADPSLVSFLTGLGCPNCIEYFTSQGLQSIYHLQNLTIEDLGALKIPEQYRMTIWRGLYDLK [Q60Y]: the abundance fitness was determined as 0.06 ± 0.1. To YHADPSLVSFLTGLGCPNCIEYFTSQGLQSIYHLQNLTIEDLGALKIPEQYRMTIWRGLHDLK [Q60H] belongs -0.246 ± 0.083; to YHADPSLVSFLTGLGCPNCIEYFTSQGLQSIYHLQNLTIEDLGALKIPEQYRMTIWRGLMDLK [Q60M], 0.031 ± 0.046; to YHADPSLVSFLTGLGCPNCIEYFTSQGLQSIYHLQNLTIEDLGALKIPEQYRMTIWRGLKDLK [Q60K], 0.117 ± 0.044. Consider YHADPSLVSFLTGLGCPNCIEYFTSQGLQSIYHLQNLTIEDLGALKIPEQYRMTIWRGLEDLK [Q60E], for which the abundance fitness amounted to 0.101 ± 0.044. To YHADPSLVSFLTGLGCPNCIEYFTSQGLQSIYHLQNLTIEDLGALKIPEQYRMTIWRGLWDLK [Q60W] belongs -0.068 ± 0.035; to YHADPSLVSFLTGLGCPNCIEYFTSQGLQSIYHLQNLTIEDLGALKIPEQYRMTIWRGLVDLK [Q60V], -0.041 ± 0.034; to YHADPSLVSFLTGLGCPNCIEYFTSQGLQSIYHLQNLTIEDLGALKIPEQYRMTIWRGLGDLK [Q60G], -0.027 ± 0.03. Consider YHADPSLVSFLTGLGCPNCIEYFTSQGLQSIYHLQNLTIEDLGALKIPEQYRMTIWRGLFDLK [Q60F], for which the abundance fitness was -0.096 ± 0.071.

Regarding YHADPSLVSFLTGLGCPNCIEYFTSQGLQSIYHLQNLTIEDLGALKIPEQYRMTIWRGLIDLK [Q60I], the abundance fitness stood at 0.034 ± 0.066.

For YHADPSLVSFLTGLGCPNCIEYFTSQGLQSIYHLQNLTIEDLGALKIPEQYRMTIWRGLNDLK [Q60N], the abundance fitness was 0.089 ± 0.057. On to YHADPSLVSFLTGLGCPNCIEYFTSQGLQSIYHLQNLTIEDLGALKIPEQYRMTIWRGLCDLK [Q60C], for which the abundance fitness is -0.102 ± 0.075.

As to YHADPSLVSFLTGLGCPNCIEYFTSQGLQSIYHLQNLTIEDLGALKIPEQYRMTIWRGLPDLK [Q60P], the abundance fitness is -0.388 ± 0.05. To YHADPSLVSFLTGLGCPNCIEYFTSQGLQSIYHLQNLTIEDLGALKIPEQYRMTIWRGLTDLK [Q60T] belongs -0.017 ± 0.079; to YHADPSLVSFLTGLGCPNCIEYFTSQGLQSIYHLQNLTIEDLGALKIPEQYRMTIWRGLADLK [Q60A], 0.047 ± 0.027.

For the variant YHADPSLVSFLTGLGCPNCIEYFTSQGLQSIYHLQNLTIEDLGALKIPEQYRMTIWRGLSDLK [Q60S], the abundance fitness came to 0.018 ± 0.036. For YHADPSLVSFLTGLGCPNCIEYFTSQGLQSIYHLQNLTIEDLGALKIPEQYRMTIWRGLLDLK [Q60L], the abundance fitness was -0.013 ± 0.04. As for YHADPSLVSFLTGLGCPNCIEYFTSQGLQSIYHLQNLTIEDLGALKIPEQYRMTIWRGLDDLK [Q60D], the figure is -0.01 ± 0.058; as for YHADPSLVSFLTGLGCPNCIEYFTSQGLQSIYHLQNLTIEDLGALKIPEQYRMTIWRQLQDLK [G58Q], -0.117 ± 0.049. As to YHADPSLVSFLTGLGCPNCIEYFTSQGLQSIYHLQNLTIEDLGALKIPEQYRMTIWRWLQDLK [G58W], the abundance fitness was -0.932 ± 0.12. To YHADPSLVSFLTGLGCPNCIEYFTSQGLQSIYHLQNLTIEDLGALKIPEQYRMTIWRFLQDLK [G58F] belongs -0.708 ± 0.17. For YHADPSLVSFLTGLGCPNCIEYFTSQGLQSIYHLQNLTIEDLGALKIPEQYRMTIWRELQDLK [G58E], the abundance fitness was found to be 0.014 ± 0.033. In the case of YHADPSLVSFLTGLGCPNCIEYFTSQGLQSIYHLQNLTIEDLGALKIPEQYRMTIWRNLQDLK [G58N], the abundance fitness is -0.36 ± 0.078.

With YHADPSLVSFLTGLGCPNCIEYFTSQGLQSIYHLQNLTIEDLGALKIPEQYRMTIWRTLQDLK [G58T], the abundance fitness was -0.358 ± 0.052.

In the case of YHADPSLVSFLTGLGCPNCIEYFTSQGLQSIYHLQNLTIEDLGALKIPEQYRMTIWRHLQDLK [G58H], the abundance fitness is -0.116 ± 0.11. For YHADPSLVSFLTGLGCPNCIEYFTSQGLQSIYHLQNLTIEDLGALKIPEQYRMTIWRDLQDLK [G58D], the abundance fitness is -0.528 ± 0.086. As for YHADPSLVSFLTGLGCPNCIEYFTSQGLQSIYHLQNLTIEDLGALKIPEQYRMTIWRSLQDLK [G58S], the figure is -0.104 ± 0.047; as for YHADPSLVSFLTGLGCPNCIEYFTSQGLQSIYHLQNLTIEDLGALKIPEQYRMTIWRRLQDLK [G58R], -0.197 ± 0.046. To YHADPSLVSFLTGLGCPNCIEYFTSQGLQSIYHLQNLTIEDLGALKIPEQYRMTIWRALQDLK [G58A] belongs 0.038 ± 0.045. Regarding YHADPSLVSFLTGLGCPNCIEYFTSQGLQSIYHLQNLTIEDLGALKIPEQYRMTIWRLLQDLK [G58L], the abundance fitness was -1.02 ± 0.1. As to YHADPSLVSFLTGLGCPNCIEYFTSQGLQSIYHLQNLTIEDLGALKIPEQYRMTIWRILQDLK [G58I], the abundance fitness is -0.68 ± 0.38. Regarding YHADPSLVSFLTGLGCPNCIEYFTSQGLQSIYHLQNLTIEDLGALKIPEQYRMTIWRYLQDLK [G58Y], the abundance fitness is -0.723 ± 0.28. As for YHADPSLVSFLTGLGCPNCIEYFTSQGLQSIYHLQNLTIEDLGALKIPEQYRMTIWRPLQDLK [G58P], the figure is -0.433 ± 0.075; as for YHADPSLVSFLTGLGCPNCIEYFTSQGLQSIYHLQNLTIEDLGALKIPEQYRMTIWRVLQDLK [G58V], -0.846 ± 0.082; as for YHADPSLVSFLTGLGCPNCIEYFTSQGLQSIYHLQNLTIEDLGALKIPEQYRMTIWRMLQDLK [G58M], -0.896 ± 0.12. To YHADPSLVSFLTGLGCPNCIEYFTSQGLQSIYHLQNLTIEDLGALKIPEQYRMTIWRGWQDLK [L59W] belongs -0.213 ± 0.05; to YHADPSLVSFLTGLGCPNCIEYFTSQGLQSIYHLQNLTIEDLGALKIPEQYRMTIWRGFQDLK [L59F], -0.065 ± 0.053; to YHADPSLVSFLTGLGCPNCIEYFTSQGLQSIYHLQNLTIEDLGALKIPEQYRMTIWRGCQDLK [L59C], -0.106 ± 0.1.

In the case of YHADPSLVSFLTGLGCPNCIEYFTSQGLQSIYHLQNLTIEDLGALKIPEQYRMTIWRGGQDLK [L59G], the abundance fitness was -0.538 ± 0.075. To YHADPSLVSFLTGLGCPNCIEYFTSQGLQSIYHLQNLTIEDLGALKIPEQYRMTIWRGQQDLK [L59Q] belongs -0.554 ± 0.092; to YHADPSLVSFLTGLGCPNCIEYFTSQGLQSIYHLQNLTIEDLGALKIPEQYRMTIWRGMQDLK [L59M], -0.042 ± 0.078; to YHADPSLVSFLTGLGCPNCIEYFTSQGLQSIYHLQNLTIEDLGALKIPEQYRMTIWRGAQDLK [L59A], -0.054 ± 0.054.

The record behind these values is the Human Domainome abundance scans (Beltran et al. 2025).
